This is an account of results in patent US9279107B2, “Simplified basic media for human pluripotent cell culture” (WISCONSIN ALUMNI RESEARCH FOUNDATION, priority 2010, dated 2016).

One assay relates to foreskin cells. Nature of the assay: Foreskin cell growth in DF5SFe-based media. The arrangement: species or system human. The conditions noted are these: individual FGF added at 100 ng/ml for 96 h to DF5SFe minus FGF. As for the experimental part: To determine growth factors that can help primary foreskin cell growth, individual growth factors contained in FBS were tested. The FGF family of growth factors has several members, one or more of which is commonly used for fibroblast culture. DF5SFe contains 100 ng/ml zebrafish recombinant FGF2. Each FGF family member was tested for its ability to support foreskin cell growth. Foreskin cells were aliquoted into the well of culture plates and incubated for 24 hours in DF5SFe minus FGF. Individual FGF types were added at 100 ng/ml for 96 h.

For assay [1], the system named is H1 cells. Nature of the assay: Oct4 expression by flow cytometry as indicator of pluripotency. The note with it: DF5SFe supplemented with NODAL at TeSR concentration. It counts as cell-based, human. As for the experimental part: As described in Example 3, human pluripotent cells, such as H1, H9, and iPS cells, could be grown and passaged over 15 times in DF5S but were prone to differentiate, such that extra care is needed to sustain pluripotency in DF5S. Because pluripotency could be maintained more easily in TeSR™, growth factors present in TeSR™ were added individually to DF5SFe used to grow H1 cells that were previously cultured in DF5S without differentiating to identify factors supporting long-term pluripotency. Cells were passaged approximately one day after reaching confluency, facilitating cell differentiation, and Oct4 expression, assessed by flow cytometry, was used as indicator of pluripotency.
Human pluripotent cells grown in DF5SFe elongated and lined up along each other, resembling a “spindle” shape just prior to differentiation. […] Thus, recombinant proteins of the TGF-β pathway were tested for their ability to support long-term pluripotency.

Assay [2] concerns H1 cells. Nature of the assay: NANOG mRNA expression. The class given is cell-based, human. The note with it: added to DF5S; NODAL 100 ng/ml or TGF-β 2 ng/ml; compared to DF5S. The text has this:
DF5S was used to expand H1 cells. Cells grown in DF5S were more prone to differentiate than cells grown in TeSR™. However, H1 cells could be grown for several weeks (more than 15 passages), during which the cells maintained human ES cell morphology and high levels of OCT4 expression (FIG. 1E, FIG. 1F). […] DF5S+NODAL also supported pluripotency of the two tested human iPS cell lines, as determined by high expression of the pluripotency marker OCT4. All cells (hES cells and iPS cells) grown in DF5S with either NODAL or TGF-β maintained a normal karyotype after long-term passage.

In a further assay the test system is iPS cells. Nature of the assay: Long-term pluripotency of lentiviral iPS cell lines. It counts as cell-based, human. The conditions noted are these: added to DF5SFe; TGF-β 2 ng/ml or NODAL 100 ng/ml. The text has this:
Human ES cell lines, such as H1 and H9 have a culture history that includes exposure to various complex culture components, such as FBS, feeder cells, and knockout serum replacer. Exposure to these components could conceivably create dependency on these components and, consequently, alter cellular response to simplified media. Culture history might play a lesser role for iPS cells, derived from reprogrammed somatic cells, as derivation conditions are less complex. Therefore, different factors were tested with two original lentiviral iPS cell lines (Yu, et al., Science 318:1917 (2007)) grown in DF5SFe. Cells were transferred from MEF plates directly into DF5SFe medium for one passage and then passaged into various growth factor conditions. […] Pluripotency surface markers SSEA4, SSEA3, Tra-1-60, and Tra-1-81 were also expressed. Cells with normal karyotypes were continuously maintained for more than 20 passages. The cells were capable of forming teratomas 5-7 weeks after injection into severe combined immunodeficient (SCID) mice.

B1: FGF4: FGF family member growth factor (protein, UniProt P08620 31-206, looked up)
Fibroblast growth factor 4: APTAPNGTLEAELERRWESLVALSLARLPVAAQPKEAAVQSGAGDYLLGIKRLRRLYCNVGIGFHLQALPDGRIGGAHADTRDSLLELSPVERGVVSIFGVASRFFVAMSSKGKLYGSPFFTDECTFKEILLPNNYNAYESYKYPGMFIALSKNGKTKKGNRVSPTMKVTHFLPRL
Consider B1, for which the foreskin cell growth result with foreskin cells is on record as “supported foreskin cell growth most effectively”.

B2: NODAL (protein, UniProt Q96S42 238-347, looked up)
Nodal homolog: HHLPDRSQLCRKVKFQVDFNLIGWGSWIIYPKQYNAYRCEGECPNPVGEEFHPTNHAYIQSLLKRYQPHRVPSTCCAPVKTKPLSMLYVDNGRVLLDHHKDMIVEECGCL
notes: recombinant protein of the TGF-β pathway
On to B2, for which, in the assay on H1 cells [1], the Oct4 expression entry is “sustained high Oct4 expression”. The “NANOG mRNA level” value with H1 cells [2] was “significantly higher levels of NANOG mRNA”. Besides, in the assay on iPS cells, the long-term pluripotency entry was “supported long-term pluripotency of iPS cells”.

B3: FGF6: FGF family member growth factor (protein, UniProt P10767 38-208, looked up)
Fibroblast growth factor 6: SPAGTRANNTLLDSRGWGTLLSRSRAGLAGEIAGVNWESGYLVGIKRQRRLYCNVGIGFHLQVLPDGRISGTHEENPYSLLEISTVERGVVSLFGVRSALFVAMNSKGRLYATPSFQEECKFRETLLPNNYNAYESDLYQGTYIALSKYGRVKRGSKVSPIMTVTHFLPRI
In the case of B3, in the assay with foreskin cells, the foreskin cell growth entry is recorded as “supported foreskin cell growth most effectively”.
